Assay results from US20120039865A1, “IDENTIFICATION OF SORTILIN AS A NEURONAL RECEPTOR FOR THE FRONTOTEMPORAL DEMENTIA PROTEIN, PROGRANULIN” (Yale University, priority 2008, published 2012).

Molecular target: endogenous mouse sortilin (Sort1) of mouse brain lysate, mouse cortical neurons and mice in vivo (mouse) (UniProt Q6PHU5)
Experiment: cell-based or functional assay

Chain of endogenous mouse sortilin (Sort1) of mouse brain lysate, mouse cortical neurons and mice in vivo (mouse) (Q6PHU5 74-825 limits assumed): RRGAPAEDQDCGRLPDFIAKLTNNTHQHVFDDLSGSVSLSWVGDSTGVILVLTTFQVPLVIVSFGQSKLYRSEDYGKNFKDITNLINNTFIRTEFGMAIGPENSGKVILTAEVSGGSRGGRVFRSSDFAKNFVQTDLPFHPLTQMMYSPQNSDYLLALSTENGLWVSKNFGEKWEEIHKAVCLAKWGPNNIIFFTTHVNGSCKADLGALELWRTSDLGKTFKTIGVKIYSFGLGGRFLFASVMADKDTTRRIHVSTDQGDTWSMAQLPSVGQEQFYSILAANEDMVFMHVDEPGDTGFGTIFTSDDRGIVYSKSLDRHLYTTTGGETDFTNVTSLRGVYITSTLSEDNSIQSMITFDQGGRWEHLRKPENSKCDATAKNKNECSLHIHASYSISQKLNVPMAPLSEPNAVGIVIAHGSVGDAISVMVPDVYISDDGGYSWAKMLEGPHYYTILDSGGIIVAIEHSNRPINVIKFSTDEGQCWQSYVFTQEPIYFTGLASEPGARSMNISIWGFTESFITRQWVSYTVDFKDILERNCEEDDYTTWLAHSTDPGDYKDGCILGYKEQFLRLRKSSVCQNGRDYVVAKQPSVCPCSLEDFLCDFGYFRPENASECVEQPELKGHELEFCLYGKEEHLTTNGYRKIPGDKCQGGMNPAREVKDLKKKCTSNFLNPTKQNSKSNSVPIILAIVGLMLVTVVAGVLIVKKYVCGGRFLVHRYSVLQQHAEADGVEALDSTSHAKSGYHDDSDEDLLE

For “endogenous mouse PGRN (serum and brain of mice) (from UniProt P28798 18-589) (ligand)”, the fold-increase in PGRN level in brain of sortilin -/- mice was 3 fold and the fold-increase in PGRN level in serum of sortilin -/- mice (immunoblot) was 4 fold.
